# Laboratory results taken from publication PMC4291175 (Nature protocols, 2014).
# Tests used:
# [1] = molecular target: GluCl-EGFP (Caenorhabditis elegans glutamate-gated chloride channel, EGFP gene fusion) (Caenorhabditis elegans) (UniProt G5EBR3); experiment: SEC
# SEC = molecular target: the molecule itself; experiment: SEC
# Chain of GluCl-EGFP (Caenorhabditis elegans glutamate-gated chloride channel, EGFP gene fusion) (G5EBR3 21-461): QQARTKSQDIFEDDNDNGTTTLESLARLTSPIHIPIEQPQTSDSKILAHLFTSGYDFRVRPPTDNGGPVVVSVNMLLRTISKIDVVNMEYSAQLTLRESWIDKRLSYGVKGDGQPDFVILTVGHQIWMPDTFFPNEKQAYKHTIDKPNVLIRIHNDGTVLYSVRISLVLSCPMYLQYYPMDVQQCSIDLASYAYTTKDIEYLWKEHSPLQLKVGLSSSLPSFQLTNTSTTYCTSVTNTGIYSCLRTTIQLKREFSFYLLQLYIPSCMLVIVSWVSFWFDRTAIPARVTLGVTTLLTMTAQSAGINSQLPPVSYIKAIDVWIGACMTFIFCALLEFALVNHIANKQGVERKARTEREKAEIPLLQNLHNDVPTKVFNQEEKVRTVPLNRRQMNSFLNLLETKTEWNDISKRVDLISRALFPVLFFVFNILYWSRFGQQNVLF
stoichiometry N [1],Molecule,stoichiometry N (SEC)
5,"GluCl-EGFP (Caenorhabditis elegans glutamate-gated chloride channel, EGFP gene fusion) (from UniProt G5EBR3 21-461) (natural protein)",
,"cASIC463 (chicken acid-sensing ion channel 1a truncated 64 residues from the carboxy terminus), N-terminal eGFP tagged (domain or fragment, Gallus gallus, UniProt Q1XA76 1-463, looked up) MMDLKVDEEEVDSGQPVSIQAFASSSTLHGISHIFSYERLSLKRVVWALCFMGSLALLALVCTNRIQYYFLYPHVTKLDEVAATRLTFPAVTFCNLNEFRFSRVTKNDLYHAGELLALLNNRYEIPDTQTADEKQLEILQDKANFRNFKPKPFNMLEFYDRAGHDIREMLLSCFFRGEQCSPEDFKVVFTRYGKCYTFNAGQDGKPRLITMKGGTGNGLEIMLDIQQDEYLPVWGETDETSFEAGIKVQIHSQDEPPLIDQLGFGVAPGFQTFVSCQEQRLIYLPPPWGDCKATTGDSEFYDTYSITACRIDCETRYLVENCNCRMVHMPGDAPYCTPEQYKECADPALDFLVEKDNEYCVCEMPCNVTRYGKELSMVKIPSKASAKYLAKKYNKSEQYIGENILVLDIFFEALNYETIEQKKAYEVAGLLGDIGGQMGLFIGASILTVLELFDYAYEVIKHR",3
